# Experimental data published in US20060058253.
# Legend:
# [1] = target: MS2 bacteriophage coat protein (Bacteriophage MS2) (UniProt P03612); conditions: likely CITED; stated Kd for cognate site
# [2] = target: hnRNP A1/A2 (Homo sapiens) (UniProt P09651+P22626); conditions: apparent Kd, likely CITED; stated for A1 and A2; excess TS10 abolishes ABS stimulation in HeLa extract
# Sequence of hnRNP A1/A2 (Homo sapiens) (P09651 whole entry, chain 1 of 2): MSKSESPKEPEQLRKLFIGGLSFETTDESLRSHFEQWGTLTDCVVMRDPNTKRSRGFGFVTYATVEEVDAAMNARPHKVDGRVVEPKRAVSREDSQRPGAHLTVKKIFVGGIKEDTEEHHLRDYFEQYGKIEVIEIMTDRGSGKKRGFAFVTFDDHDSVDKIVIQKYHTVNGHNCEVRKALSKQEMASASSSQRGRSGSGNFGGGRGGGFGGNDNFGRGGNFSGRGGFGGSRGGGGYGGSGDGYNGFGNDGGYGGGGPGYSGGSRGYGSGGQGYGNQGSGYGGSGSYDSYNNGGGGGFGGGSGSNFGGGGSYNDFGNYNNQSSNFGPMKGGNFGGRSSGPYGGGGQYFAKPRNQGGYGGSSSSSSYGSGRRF
# Sequence of hnRNP A1/A2 (Homo sapiens) (P22626 whole entry, chain 2 of 2): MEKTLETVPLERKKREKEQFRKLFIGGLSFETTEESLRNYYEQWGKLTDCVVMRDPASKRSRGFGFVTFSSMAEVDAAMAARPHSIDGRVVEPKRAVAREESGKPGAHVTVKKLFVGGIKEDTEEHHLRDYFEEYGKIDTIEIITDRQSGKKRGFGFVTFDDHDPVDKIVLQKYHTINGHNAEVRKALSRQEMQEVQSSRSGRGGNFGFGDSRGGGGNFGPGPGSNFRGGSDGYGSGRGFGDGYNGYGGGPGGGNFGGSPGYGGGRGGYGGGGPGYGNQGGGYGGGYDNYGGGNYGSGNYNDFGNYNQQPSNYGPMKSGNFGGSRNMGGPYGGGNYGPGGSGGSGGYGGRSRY
# Sequence of MS2 bacteriophage coat protein (Bacteriophage MS2) (P03612 2-130): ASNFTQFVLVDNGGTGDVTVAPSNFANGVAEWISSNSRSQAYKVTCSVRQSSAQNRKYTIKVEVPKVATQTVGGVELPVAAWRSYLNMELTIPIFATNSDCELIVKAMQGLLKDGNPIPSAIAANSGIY
Substance,Kd [1] [nM],Kd [2] [nM]
MS2 stem-loop binding site in C5 pre-mRNA (position -26),1,–
"TS10 telomeric DNA oligo (60 nt, nine A1 binding sites)",–,< 5
